Data published in the Immune Epitope Database (IEDB).

Key:
Assay in all cases: IEDB peptide-MHC binding, purified MHC/competitive/radioactivity; ≥ and ≤ were set here for values at or beyond the usual limits of such assays
HLA-A*02:03 = target: HLA-A*02:03
HLA-A*68:02 = target: HLA-A*68:02
HLA-A*02:01 = target: HLA-A*02:01
HLA-A*02:02 = target: HLA-A*02:02
HLA-A*02:06 = target: HLA-A*02:06
[1] = source organism: Vaccinia virus WR
[2] = source organism: Hepacivirus hominis
[3] = source organism: Influenza A virus

Sequence | IC50 (HLA-A*02:03; [1]) [nM] | IC50 (HLA-A*68:02; [1]) [nM] | IC50 (HLA-A*02:01; [1]) [nM] | IC50 (HLA-A*02:02; [1]) [nM] | IC50 (HLA-A*02:06; [1]) [nM] | further results
VQEFIFSAL | 466 | 552 | 614 | 419 | 198 | 
IISYIILFI | 59 | 5.7 | 12 | 2.8 | 27 | 
ALINLVQYRI | 82 | 1770 | 30 | 8.3 | 417 | 
VLMVDSFDPV |  |  |  |  |  | IC50 (HLA-A*02:03; [2]): 12 nM; IC50 (HLA-A*68:02; [2]): 1520 nM; IC50 (HLA-A*02:01; [2]): 33 nM; IC50 (HLA-A*02:02; [2]): 13 nM; IC50 (HLA-A*02:06; [2]): 31 nM
VIADYNYKL |  |  |  |  |  | IC50 (HLA-A*02:03; source organism: SARS-CoV1): 115 nM; IC50 (HLA-A*68:02; source organism: SARS-CoV1): 290 nM; IC50 (HLA-A*02:01; source organism: SARS-CoV1): 24 nM; IC50 (HLA-A*02:02; source organism: SARS-CoV1): 0.48 nM; IC50 (HLA-A*02:06; source organism: SARS-CoV1): 69 nM
MIYDLNAVTT | 477 | 114 | 278 | 897 | 429 | 
RLLLLGLLLL |  |  |  |  |  | IC50 (HLA-A*02:03; [2]): 4250 nM; IC50 (HLA-A*68:02; [2]): 3610 nM; IC50 (HLA-A*02:01; [2]): 496 nM; IC50 (HLA-A*02:02; [2]): 1200 nM; IC50 (HLA-A*02:06; [2]): 1050 nM
TVPTNDHIPV | 1890 | 57 | 1670 | 1680 | 515 | 
ILMTHFFSIL |  |  |  |  |  | IC50 (HLA-A*02:03; [2]): 69 nM; IC50 (HLA-A*68:02; [2]): 3970 nM; IC50 (HLA-A*02:01; [2]): 44 nM; IC50 (HLA-A*02:02; [2]): 35 nM; IC50 (HLA-A*02:06; [2]): 101 nM
AAVIIMAINV | 607 | 95 | 1450 | 1290 | 446 | 
FLDWIKDIMT | 146 | 4860 | 50 | 424 | 140 | 
AVLSEYETMV | 1.5 | 1770 | 9.7 | 0.76 | 24 | 
LIANIFTPLV |  |  |  |  |  | IC50 (HLA-A*02:03; source organism: SARS-CoV1): 13 nM; IC50 (HLA-A*68:02; source organism: SARS-CoV1): 19 nM; IC50 (HLA-A*02:01; source organism: SARS-CoV1): 12 nM; IC50 (HLA-A*02:02; source organism: SARS-CoV1): 0.4 nM; IC50 (HLA-A*02:06; source organism: SARS-CoV1): 16 nM
YTVEFDRDKV | 154 | 4.5 | 934 | 83 | 22 | 
IMAFILGII | 30 | 2520 | 166 | 17 | 175 | 
RTFFLTQGA |  |  |  |  |  | IC50 (HLA-A*02:03; [3]): 158 nM; IC50 (HLA-A*68:02; [3]): 514 nM; IC50 (HLA-A*02:01; [3]): 3110 nM; IC50 (HLA-A*02:02; [3]): 2010 nM; IC50 (HLA-A*02:06; [3]): 1990 nM
PISDYSAEV | 267 | 1390 | 1050 | 716 | 2800 | 
LIVNSVLLFL |  |  |  |  |  | IC50 (HLA-A*02:03; source organism: SARS-CoV1): 90 nM; IC50 (HLA-A*68:02; source organism: SARS-CoV1): 169 nM; IC50 (HLA-A*02:01; source organism: SARS-CoV1): 27 nM; IC50 (HLA-A*02:02; source organism: SARS-CoV1): 3.7 nM; IC50 (HLA-A*02:06; source organism: SARS-CoV1): 11 nM
